# PMC6488673, “Crystal structure of the Lin28-interacting module of human terminal uridylyltransferase that regulates let-7 expression”
# T1: hTUT4_N;hLin28A (human;human, UniProt Q5TAX3;Q9H9Z2 253-578+611-723;1-209, internal_change|)
# T1 sequence 1: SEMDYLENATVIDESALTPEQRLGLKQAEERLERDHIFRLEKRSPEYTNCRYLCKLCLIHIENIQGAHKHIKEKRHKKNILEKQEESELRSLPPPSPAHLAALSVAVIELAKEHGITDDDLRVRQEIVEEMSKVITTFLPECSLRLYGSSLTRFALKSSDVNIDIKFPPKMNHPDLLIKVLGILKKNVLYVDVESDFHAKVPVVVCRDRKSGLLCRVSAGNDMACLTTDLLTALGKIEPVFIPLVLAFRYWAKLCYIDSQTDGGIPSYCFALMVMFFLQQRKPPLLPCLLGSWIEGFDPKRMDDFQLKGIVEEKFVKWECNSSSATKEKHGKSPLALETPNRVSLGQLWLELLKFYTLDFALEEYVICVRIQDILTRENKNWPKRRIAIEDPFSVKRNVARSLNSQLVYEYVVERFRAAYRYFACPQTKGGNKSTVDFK
# T1 sequence 2: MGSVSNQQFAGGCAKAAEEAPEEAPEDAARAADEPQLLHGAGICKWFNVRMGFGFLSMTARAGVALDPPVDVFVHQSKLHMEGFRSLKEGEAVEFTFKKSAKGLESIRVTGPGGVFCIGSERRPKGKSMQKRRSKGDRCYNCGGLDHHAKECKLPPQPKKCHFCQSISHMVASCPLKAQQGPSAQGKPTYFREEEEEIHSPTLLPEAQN
# B1: pre-let-7a-1 (structured_RNA)
# RNA: UGAGGUAGUAGGUUGUAUAGUUUUAGGGUCACACCCACCACUGGGAGAUAACUAUACAAUCUACUGUCUUUC
# Target: T1, hTUT4_N;hLin28A
# Test: EMSA; ternary complex; 300 nM each protein, 100 nM RNA; EMSA: 50 mM Tris-HCl pH 8.5, 100 mM NaCl, 10 mM MgCl2, 10 mM beta-mercaptoethanol, 10% glycerol, 10 min, room temperature; Tb(III) footprinting: same salts, 5%
# Conditions: protein: recombinant;recombinant; tags: C-terminal expression tag, residues 724-731 (pET22b, XhoI, Ni-NTA);N-terminal His tag (pET28b; Ni-NTA purified); copies: 1;1; label: none in EMSA (ethidium bromide stain); hairpin
binder,measurement,value
B1,binding result,binds
